Experimental data taken from PMC8834548, “Epiregulin as an Alternative Ligand for Leptin Receptor Alleviates Glucose Intolerance without Change in Obesity” (Cells, 2022).

T1: mouse recombinant leptin receptor (LepR) protein (mouse, UniProt P48356 22-839)
T1 construct: leptin receptor, mouse, recombinant, R&D systems 497-LR/CF; also called recombinant LepR; source: bought: R&D systems, 497-LR/CF
T1 sequence (looked up): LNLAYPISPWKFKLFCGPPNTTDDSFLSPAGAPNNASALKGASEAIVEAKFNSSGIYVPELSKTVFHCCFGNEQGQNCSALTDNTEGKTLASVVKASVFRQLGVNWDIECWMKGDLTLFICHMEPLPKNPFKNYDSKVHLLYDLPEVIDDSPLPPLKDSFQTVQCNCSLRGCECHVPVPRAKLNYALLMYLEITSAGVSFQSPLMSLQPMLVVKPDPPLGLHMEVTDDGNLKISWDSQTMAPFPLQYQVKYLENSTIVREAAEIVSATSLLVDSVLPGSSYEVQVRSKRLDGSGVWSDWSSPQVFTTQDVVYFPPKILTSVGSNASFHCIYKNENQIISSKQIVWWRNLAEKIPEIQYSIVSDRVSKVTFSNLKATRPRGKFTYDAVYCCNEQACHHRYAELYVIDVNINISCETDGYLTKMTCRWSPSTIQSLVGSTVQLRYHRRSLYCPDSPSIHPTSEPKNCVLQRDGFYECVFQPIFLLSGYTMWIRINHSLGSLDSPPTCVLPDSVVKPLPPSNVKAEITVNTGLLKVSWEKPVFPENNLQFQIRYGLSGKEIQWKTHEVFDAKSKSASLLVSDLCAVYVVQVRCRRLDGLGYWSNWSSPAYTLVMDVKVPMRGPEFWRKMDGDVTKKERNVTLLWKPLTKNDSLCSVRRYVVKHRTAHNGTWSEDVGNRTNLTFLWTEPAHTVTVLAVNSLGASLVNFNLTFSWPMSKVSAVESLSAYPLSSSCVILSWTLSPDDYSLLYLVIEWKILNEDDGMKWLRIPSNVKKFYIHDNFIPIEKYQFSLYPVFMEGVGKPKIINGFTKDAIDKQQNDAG


How the values were obtained:
[1] = target: mouse recombinant leptin receptor (LepR) protein (mouse) (UniProt P48356); assay: quartz crystal microbalance with dissipation (QCM-D); LepR (1.6 pM in PBS) laid as a monolayer on a gold quartz sensor, then mouse leptin or mouse EREG (1.6 fM) added; PBS pH 7.1-7.5, 25 C, flow 50 uL/min; frequency, dissipation and modelled film thickness
[2] = target: leptin receptor (LepR), endogenous in mouse adipose tissue (mouse (endogenous in Lep^ob adipose tissue)) (UniProt P48356)
[3] = target: T1, mouse recombinant leptin receptor …; assay: quartz crystal microbalance with dissipation (QCM-D); LepR (1.6 pM in PBS) laid as a monolayer on a gold quartz sensor, then mouse leptin or mouse EREG (1.6 fM) added; PBS pH 7.1-7.5, 25 C, flow 50 uL/min; frequency, dissipation and modelled film thickness; conditions: both partners purified

| thickness of the LepR film after EREG was added (23 nm before) [1] [nm] | FD-glucose uptake in 3T3-L1 preadipocytes against the concentration of mouse EREG [2] [nM] | binding result [3] | Molecule |
| --- | --- | --- | --- |
| 20 | 26 | – | mouse recombinant EREG (ligand) |
| – | – | binds | mouse leptin (ligand, UniProt P41160 22-167, looked up, leptin, mouse, Crystal Chem 90030-B; source: bought: Crystal Chem, 90030-B) VPIQKVQDDTKTLIKTIVTRINDISHTQSVSAKQRVTGLDFIPGLHPILSLSKMDQTLAVYQQVLTSLPSQNVLQIANDLENLRDLLHLLAFSKSCSLPQTSGLQKPESLDGVLEASLYSTEVVALSRLQGSLQDILQQLDVSPEC |
